Experimental data from publication PMC2918618, “Characterization of the TnsD-attTn7 complex that promotes site-specific insertion of Tn7” (Mobile DNA, 2010).

How the values were obtained:
Assay in all cases: EMSA; Gel-shift buffer not given (as described in ref. 6); TnsD stored in 500 mM KCl, 50 mM Tris-HCl pH 8.0, 1 mM EDTA, 2 mM DTT, 25% glycerol
Conditions in all cases: protein: recombinant; tags: intein-chitin tag, cleaved with DTT
TnsD C127S = biological target: T1, TnsD C127S (Escherichia coli (transposon Tn7), UniProt P13991 1-508, C127S)
T1 sequence: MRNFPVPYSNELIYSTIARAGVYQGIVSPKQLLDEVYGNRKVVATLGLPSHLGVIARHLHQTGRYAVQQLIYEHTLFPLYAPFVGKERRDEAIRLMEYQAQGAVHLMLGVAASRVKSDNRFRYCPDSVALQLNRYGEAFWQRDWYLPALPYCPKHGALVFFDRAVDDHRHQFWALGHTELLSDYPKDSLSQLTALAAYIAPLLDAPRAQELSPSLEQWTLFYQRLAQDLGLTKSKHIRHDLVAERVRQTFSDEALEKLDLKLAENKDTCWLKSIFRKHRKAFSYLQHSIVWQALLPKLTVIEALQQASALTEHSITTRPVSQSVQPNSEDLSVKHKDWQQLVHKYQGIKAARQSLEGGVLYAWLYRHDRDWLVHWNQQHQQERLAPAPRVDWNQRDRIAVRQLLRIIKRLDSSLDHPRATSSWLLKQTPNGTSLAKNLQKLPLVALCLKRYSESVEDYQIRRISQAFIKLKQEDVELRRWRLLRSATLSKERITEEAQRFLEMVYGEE

TnsD H155S = biological target: T2, TnsD H155S (Escherichia coli (transposon Tn7), UniProt P13991 1-508, H155S)
T2 sequence: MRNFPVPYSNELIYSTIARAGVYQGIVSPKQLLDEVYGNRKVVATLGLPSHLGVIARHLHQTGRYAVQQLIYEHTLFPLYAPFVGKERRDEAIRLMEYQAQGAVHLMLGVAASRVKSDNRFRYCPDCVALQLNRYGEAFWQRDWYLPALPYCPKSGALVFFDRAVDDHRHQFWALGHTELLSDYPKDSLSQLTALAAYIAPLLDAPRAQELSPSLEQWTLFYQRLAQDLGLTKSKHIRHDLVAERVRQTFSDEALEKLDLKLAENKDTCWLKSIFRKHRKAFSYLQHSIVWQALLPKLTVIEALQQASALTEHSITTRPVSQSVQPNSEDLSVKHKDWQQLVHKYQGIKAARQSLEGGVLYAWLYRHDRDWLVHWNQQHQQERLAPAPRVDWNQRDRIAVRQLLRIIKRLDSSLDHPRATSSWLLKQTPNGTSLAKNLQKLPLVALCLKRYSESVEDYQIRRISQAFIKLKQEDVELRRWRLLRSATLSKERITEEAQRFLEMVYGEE

TnsD C124S = biological target: T3, TnsD C124S (Escherichia coli (transposon Tn7), UniProt P13991 1-508, C124S)
T3 sequence: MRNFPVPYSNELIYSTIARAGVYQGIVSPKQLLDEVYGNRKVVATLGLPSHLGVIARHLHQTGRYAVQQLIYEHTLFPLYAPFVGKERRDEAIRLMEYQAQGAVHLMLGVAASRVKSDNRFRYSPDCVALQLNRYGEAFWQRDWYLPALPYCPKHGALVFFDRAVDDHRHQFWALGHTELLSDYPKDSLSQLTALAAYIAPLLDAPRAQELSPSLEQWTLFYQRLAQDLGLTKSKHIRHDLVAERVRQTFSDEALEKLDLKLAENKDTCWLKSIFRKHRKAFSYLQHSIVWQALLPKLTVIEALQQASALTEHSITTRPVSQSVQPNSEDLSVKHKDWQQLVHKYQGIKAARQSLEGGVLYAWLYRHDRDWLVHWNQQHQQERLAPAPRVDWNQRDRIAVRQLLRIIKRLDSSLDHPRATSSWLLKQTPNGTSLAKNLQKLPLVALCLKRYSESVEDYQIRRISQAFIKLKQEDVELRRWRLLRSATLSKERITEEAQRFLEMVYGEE

TnsD C152S = biological target: T4, TnsD C152S (Escherichia coli (transposon Tn7), UniProt P13991 1-508, C152S)
T4 sequence: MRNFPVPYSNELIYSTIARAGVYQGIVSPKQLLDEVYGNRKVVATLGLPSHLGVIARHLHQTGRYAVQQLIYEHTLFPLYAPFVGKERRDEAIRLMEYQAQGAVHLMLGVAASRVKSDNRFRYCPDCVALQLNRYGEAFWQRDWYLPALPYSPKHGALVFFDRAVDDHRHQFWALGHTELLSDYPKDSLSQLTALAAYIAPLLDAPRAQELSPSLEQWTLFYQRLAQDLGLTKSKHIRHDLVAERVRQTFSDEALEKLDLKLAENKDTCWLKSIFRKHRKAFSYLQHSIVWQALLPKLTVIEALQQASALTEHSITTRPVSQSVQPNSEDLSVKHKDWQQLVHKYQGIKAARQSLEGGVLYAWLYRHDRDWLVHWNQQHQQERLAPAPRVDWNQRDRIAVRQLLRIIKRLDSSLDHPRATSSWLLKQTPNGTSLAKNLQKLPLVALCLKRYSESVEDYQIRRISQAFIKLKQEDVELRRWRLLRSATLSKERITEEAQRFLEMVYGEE

Measured: binding signal

B1: attTn7 wt (+23 to +58) (dsDNA)
DNA 1: CCGCGTAACCTGGCAAAATCGGTTACGGTTGAGTAA
DNA 2: TTACTCAACCGTAACCGATTTTGCCAGGTTACGCGG
0.05 relative to wt: all assays above
